Assay results published in the nanobody polyreactivity screen of Harvey et al. (2022).

assay: yeast display, Sf9 membrane polyspecificity reagent, FACS + sequencing; frameworks hold sequencing errors
Procedure, shortened: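 Synthetic nanobody libraries on Saccharomyces cerevisiae BJ5465 were galactose-induced for 36–48 hours, stained 1 hour at 4 °C with 10% biotinylated, detergent-solubilized Sf9 membrane reagent and enriched on streptavidin microbeads. FACS then separated cells into low and high (top ~1%) gates by anti-HA (expression) and streptavidin (reagent binding) fluorescence. Genes were colony-PCR amplified, MiSeq 2 × 250 sequenced and CDR-length filtered. A clone's polyreactivity label is that of its gate of origin.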

Row | Sequence | polyreactivity (PSR sort gate)
1 | QDQLVESGGGIVQAGGSLRLSCAASGSTFTWYAMGWYLQDPGKEREFVAAITRSGDSTYYADSVKGRFTISRDNAKNTVYLEMNSLKPEDTAVYYCAASNDYLRGWFDYWGQGTQVTVSS | low polyreactivity
2 | QDQLVESGGGLDQAGCILRLSCAASGITFSVYTMGWSRQAPGKERELVAANDSDGITNYADSVKGRFTISRDNAKNTDYLQMNSLKPEDTAVYYCNAIADGSSSRWRPYSKFYYWGKGTQVTVSS | low polyreactivity
3 | QDQLVESGGGLDQAGGSLRLSCAASGSTFPGYAMGWYRQAPGKERELVASIYTGGSTYYADSVKGRFTISRDNAKNTVYLQMNSLKPEDTAVYYCAADSYNVSSLLYYWGQGTQVTVSS | low polyreactivity
4 | QDQLVESGGGLDQAGGSLRLSCAASGSTLGNNAMGWYRQAPGKERELVAAISTRGGSTYYADSVKGRFTISRDNAKNTVYLQMNSLKPEDTAVYYCAADFGQYHGDVRKMDYWGQGTQVTVSS | low polyreactivity
5 | QDQLVESGGGLVQAGCSLRLSCAASGFIFPNYAMGWYRQAPGKERELVAAISTDGSTNYADSVKGRFTISRDNAKTTVYLQMNSLKTEDTAVYYCAKYGRVKPQRYDYDYWGQGTQVTVSS | high polyreactivity
6 | QDQLVESGGGLVQAGGILRLSSSASGFTFAYYAMGWYRQSTGKERQLVAAISSRGGSTYYADTVKGRFSISRDNAKNTVYLQMNILKPEDTAVYYCAAEFGLWPYEYGYCGQGTQVTVSS | high polyreactivity
7 | QDQLVESGGGLVQAGGRLRLSCAASGRIIRTYARGWDRQAPGKERELVAAITNGDSTNYADSVMGRFTMSRDNAKNTVYLQMNSLKPEDTAVYYCAVGAVVPGRRRRTYYYWGQGTQVTVSS | high polyreactivity
8 | QDQLVESGGGLVQAGGSHRLTCAASGFIFAYYAMGWYRQAPGKERELVAAISRSGARTYYADSVKGRFTISRDNAKNTVYLQMKSLKPEDTAVFYCSARIIVDVVGTKYYYWGQGTQVTVSS | high polyreactivity
9 | QDQLVESGGGLVQAGGSLRISCAASGRIFDYNAMGWYRQAPGKERELVAAITGGGNTTYADSVKGRFTISRDNAKNTVYLQMNSLKPEDTAVYYCAADVVSVYRLSYKPLGYYWGQGTQVTVSS | low polyreactivity
10 | QDQLVESGGGLVQAGGSLRLICAASGFTITTYAMGWYRQAPGKERELVASISYSGGRTYYADSVKGRFTISRDNAKNTVYLQLNSLKPEDTAVYFCAAVGVRNRAPSRGGYWGQGPQVTVSS | high polyreactivity
11 | QDQLVESGGGLVQAGGSLRLICAASGITFLVNAMGWYRQAPGKERELVAGITSGDSTNYADSVKGRFTISRDNAKNTVYLQMNSLKPEDTAVYYCATVLYVGSGGGGILWDDDYWGQGTQVTVSS | low polyreactivity
12 | QDQLVESGGGLVQAGGSLRLICAASGSIFTSNAMGWYRQAAGKERELVAAITSSGGSTYYADSVKGRFTISRDNAKNTVYLHMNSLKPEYTAVYYCAAAKFDLSFWLYYWGQGTQVTVSS | low polyreactivity
13 | QDQLVESGGGLVQAGGSLRLICAASGYIFVYNAMGWYRQTPWKERELVAAITDGGGSTYADSVKGRFTISRDNAKNSVYLQMNSLKPEDTAVYYCSARYSDTTWYVLYYYWGQGTQVTVSS | low polyreactivity
14 | QDQLVESGGGLVQAGGSLRLIFAASGSIFNGYAMGWSRQAPGKERELVADIRSGGSTYYADSVMGRFTISRDNAKNTVYLQMNSLKPEDTAVYYGAADTITDGYDYWGQGSQVTVSS | low polyreactivity
15 | QDQLVESGGGLVQAGGSLRLPCAASGYIFFFNAIGWYRQAPGKERELVAAITRRGVSTYYADSVKGRFTISRDNAKNTVYLQMNSLNPEDTAVYYCATDHNHLGYYYWGQGTQVTVSS | low polyreactivity
16 | QDQLVESGGGLVQAGGSLRLRCAASGFTFGCYAMGWYRQAPGKERELVASITSGGSTNYADSVKGRFTISRDNAKNTVYLQMNTLKPEDTAVYYCAKDLLGFDKVQYKIEDYWGQGTQVTVSS | low polyreactivity
17 | QDQLVESGGGLVQAGGSLRLSCAASGFIFSWYAMGWYRQPPGKERELVAGISIRGGRTYADSVKGRFTISRDNAKNTVYLQMNSLKPDDTAVYYCATRSYRPYHSLYDYWGQGTQVTVSS | high polyreactivity
